Experiments:
Test in all cases: holdup assay
Conditions in all cases: plain residues with an end cap or a label only (N-terminal biotin on a linker: (peg)3)
[1] = biological target: T1, PTPN13_5, Q12923
T1 sequence (Q12923 1877-1975, limits assumed, looked up): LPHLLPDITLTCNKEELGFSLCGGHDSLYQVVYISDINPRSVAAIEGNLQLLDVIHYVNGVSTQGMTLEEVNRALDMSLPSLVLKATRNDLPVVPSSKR

[2] = biological target: T2, PTPN13_4, Q12923
T2 sequence (Q12923 1783-1878, limits assumed, looked up): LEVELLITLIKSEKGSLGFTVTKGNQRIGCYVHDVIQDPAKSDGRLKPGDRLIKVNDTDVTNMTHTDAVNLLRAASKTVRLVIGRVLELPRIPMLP

[3] = biological target: PARD3_1, Q8TEW0
Chain of PARD3_1, Q8TEW0 (Q8TEW0 264-372): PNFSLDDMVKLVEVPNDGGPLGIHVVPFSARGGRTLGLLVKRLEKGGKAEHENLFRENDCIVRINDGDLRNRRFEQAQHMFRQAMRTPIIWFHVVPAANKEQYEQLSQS

[4] = biological target: T3, MPP5, Q8N3R9
T3 sequence (Q8N3R9 251-346, limits assumed, looked up): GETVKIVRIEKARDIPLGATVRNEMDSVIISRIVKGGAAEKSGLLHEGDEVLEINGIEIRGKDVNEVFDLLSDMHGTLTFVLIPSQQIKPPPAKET

[5] = biological target: T4, PDZRN3_2, Q9UPQ7
T4 sequence (Q9UPQ7 414-513, limits assumed, looked up): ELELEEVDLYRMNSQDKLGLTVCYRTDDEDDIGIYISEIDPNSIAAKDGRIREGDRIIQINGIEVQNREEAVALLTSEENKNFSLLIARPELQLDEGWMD

[6] = biological target: T5, GIPC1, O14908
T5 sequence (O14908 128-223, limits assumed, looked up): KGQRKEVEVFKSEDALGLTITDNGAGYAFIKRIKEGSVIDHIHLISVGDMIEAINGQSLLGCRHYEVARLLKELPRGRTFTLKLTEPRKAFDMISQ

[7] = biological target: T6, TJP3_2, O95049
T6 sequence (O95049 190-282, limits assumed, looked up): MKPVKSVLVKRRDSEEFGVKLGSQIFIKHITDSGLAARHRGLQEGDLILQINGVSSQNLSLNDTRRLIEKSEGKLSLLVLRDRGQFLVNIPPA

[8] = biological target: LMO7, Q8WWI1
Chain of LMO7, Q8WWI1 (Q8WWI1 1037-1138): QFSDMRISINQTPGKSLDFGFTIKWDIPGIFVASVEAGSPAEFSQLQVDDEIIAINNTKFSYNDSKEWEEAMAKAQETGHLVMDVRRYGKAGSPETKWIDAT

[9] = biological target: MAGIX, Q9H6Y5
Chain of MAGIX, Q9H6Y5 (Q9H6Y5 118-211): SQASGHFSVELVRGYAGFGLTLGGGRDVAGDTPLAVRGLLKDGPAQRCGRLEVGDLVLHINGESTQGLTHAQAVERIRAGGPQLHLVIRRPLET

[10] = biological target: T7, MPDZ_11, O75970
T7 sequence (O75970 1720-1817, limits assumed, looked up): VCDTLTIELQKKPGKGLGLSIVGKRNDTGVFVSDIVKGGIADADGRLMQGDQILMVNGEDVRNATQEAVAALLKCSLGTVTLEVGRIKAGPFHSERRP

[11] = biological target: Inadl_7, Q8NI35
Chain of Inadl_7, Q8NI35 (Q8NI35 1219-1332): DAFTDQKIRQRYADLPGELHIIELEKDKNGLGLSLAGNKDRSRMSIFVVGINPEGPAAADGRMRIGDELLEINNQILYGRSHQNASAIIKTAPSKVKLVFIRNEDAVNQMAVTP

[12] = biological target: NHERF2_1, Q15599
Chain of NHERF2_1, Q15599 (Q15599 9-91): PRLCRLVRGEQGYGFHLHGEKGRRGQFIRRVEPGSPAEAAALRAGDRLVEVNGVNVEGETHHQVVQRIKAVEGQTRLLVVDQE

[13] = biological target: MAGI3_4, Q5TCQ9
Chain of MAGI3_4, Q5TCQ9 (Q5TCQ9 716-815): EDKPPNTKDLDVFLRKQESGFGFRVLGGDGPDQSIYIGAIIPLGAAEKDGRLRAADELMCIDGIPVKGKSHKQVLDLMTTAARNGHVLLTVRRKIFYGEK

[14] = biological target: T8, NHERF1_2, O14745
T8 sequence (O14745 149-244, limits assumed, looked up): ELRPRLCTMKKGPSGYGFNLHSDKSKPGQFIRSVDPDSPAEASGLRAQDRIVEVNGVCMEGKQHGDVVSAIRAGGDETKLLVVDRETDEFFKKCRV

[15] = biological target: RGS3, P49796-9
Chain of RGS3, P49796-9 (P49796 other isoform, or with tags, fused parts or gaps): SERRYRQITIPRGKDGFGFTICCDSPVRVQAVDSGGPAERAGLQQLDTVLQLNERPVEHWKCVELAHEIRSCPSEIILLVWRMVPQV

[16] = biological target: T9, SNTB2, Q13425
T9 sequence (Q13425 110-208, limits assumed, looked up): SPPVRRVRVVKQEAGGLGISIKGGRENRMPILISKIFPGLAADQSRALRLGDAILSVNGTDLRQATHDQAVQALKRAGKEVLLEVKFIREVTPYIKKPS

[17] = biological target: T10, SHANK2, Q9UPX8
T10 sequence (Q9UPX8 621-730, limits assumed, looked up): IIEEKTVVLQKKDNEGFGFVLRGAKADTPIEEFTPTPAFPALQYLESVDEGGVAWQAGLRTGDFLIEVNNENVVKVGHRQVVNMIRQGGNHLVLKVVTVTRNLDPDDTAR

[18] = biological target: T11, SHROOM2, Q13796
T11 sequence (Q13796 21-118, limits assumed, looked up): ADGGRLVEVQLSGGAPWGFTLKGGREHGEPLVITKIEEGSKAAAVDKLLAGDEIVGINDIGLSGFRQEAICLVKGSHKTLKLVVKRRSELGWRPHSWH

[19] = biological target: DLG4_1, P78352
Chain of DLG4_1, P78352 (P78352 62-152): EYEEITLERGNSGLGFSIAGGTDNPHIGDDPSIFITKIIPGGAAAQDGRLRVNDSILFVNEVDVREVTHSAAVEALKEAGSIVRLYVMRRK

[20] = biological target: GRID2IP_2, A4D2P6
Chain of GRID2IP_2, A4D2P6 (A4D2P6 272-370): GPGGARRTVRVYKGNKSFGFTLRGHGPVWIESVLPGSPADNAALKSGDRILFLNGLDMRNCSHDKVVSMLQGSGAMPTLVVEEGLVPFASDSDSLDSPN

[21] = biological target: T12, PARD6B, Q9BYG5
T12 sequence (Q9BYG5 152-260, limits assumed, looked up): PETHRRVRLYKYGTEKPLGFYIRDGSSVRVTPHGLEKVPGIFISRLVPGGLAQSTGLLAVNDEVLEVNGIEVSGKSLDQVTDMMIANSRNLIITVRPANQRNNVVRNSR

[22] = biological target: T13, USH1C_2, Q9Y6N9
T13 sequence (Q9Y6N9 206-303, limits assumed, looked up): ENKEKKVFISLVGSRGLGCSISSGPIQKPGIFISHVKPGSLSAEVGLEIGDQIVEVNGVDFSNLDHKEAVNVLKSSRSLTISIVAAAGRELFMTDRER

[23] = biological target: DLG2_1, Q15700
[24] = biological target: PDZD9, Q8IXQ8
Chain of PDZD9, Q8IXQ8 (Q8IXQ8 23-120): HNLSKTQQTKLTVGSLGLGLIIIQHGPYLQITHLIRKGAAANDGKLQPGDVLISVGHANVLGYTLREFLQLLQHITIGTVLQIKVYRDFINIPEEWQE

Q: For NLNSSEGVPDLLV [SARS-CoV-E, P59637], which pKd [1] is on record?
A: below the threshold

Q: And the pKd [2]?
A: 4.64

Q: And the pKd [3]?
A: 3.79

Q: What about the pKd [4] of the same binder?
A: below the threshold

Q: What about the pKd [5] of the same binder?
A: below the threshold

Q: And the pKd [6]?
A: below the threshold

Q: What about the pKd [7] of the same binder?
A: below the threshold

Q: And the pKd [8]?
A: below the threshold

Q: What about the pKd [9] of the same binder?
A: below the threshold

Q: And the pKd [10]?
A: below the threshold

Q: What about the pKd [11] of the same binder?
A: below the threshold

Q: What about the pKd [12] of the same binder?
A: below the threshold

Q: What about the pKd [13] of the same binder?
A: below the threshold

Q: And the pKd [14]?
A: 3.74

Q: And the pKd [15]?
A: below the threshold

Q: What about the pKd [16] of the same binder?
A: below the threshold

Q: What about the pKd [17] of the same binder?
A: below the threshold

Q: What about the pKd [18] of the same binder?
A: below the threshold

Q: And the pKd [19]?
A: below the threshold

Q: What about the pKd [20] of the same binder?
A: below the threshold

Q: And the pKd [21]?
A: below the threshold

Q: What about the pKd [22] of the same binder?
A: below the threshold

Q: And the pKd [23]?
A: below the threshold

Q: What about the pKd [24] of the same binder?
A: below the threshold
